Experimental data as given in patent publication US20210403506A1 (XDCEXPLORER SHANGHAI, published 2021).
Square brackets hold non-standard residues; d marks the D form. Primed or numbered codes have the meaning given here. Ends that are not written are not given here. Bpa = N[C@@H](Cc1ccc(C(=O)c2ccccc2)cc1)C(=O)O; Pro(5R-Ph) = O=C(O)[C@@H]1CC[C@H](c2ccccc2)N1; dTyr(3-F) = N[C@H](Cc1ccc(O)c(F)c1)C(=O)O; Pro(diF)″ = difluoroproline (DiFluorPro); 1Nal = N[C@@H](Cc1cccc2ccccc12)C(=O)O; 2Nal = N[C@@H](Cc1ccc2ccccc2c1)C(=O)O; dNMeY = CN[C@H](Cc1ccc(O)cc1)C(=O)O; NMeF = CN[C@@H](Cc1ccccc1)C(=O)O; Tic = O=C(O)[C@@H]1Cc2ccccc2CN1; dTic = O=C(O)[C@H]1Cc2ccccc2CN1; NMeL = CN[C@@H](CC(C)C)C(=O)O; Pro(4Ph) = 4-phenylproline; NMeS = CN[C@@H](CO)C(=O)O; Thz = O=C(O)[C@@H]1CSCN1; dTi1c = not defined here; Aze = O=C(O)[C@@H]1CCN1

B1: YW-104 (peptide)
peptide: [dY][NMeF]LP[dS]QF[dA][Tic]S-OH
modifications: N-terminus assumed
SMILES: CC(C)C[C@H](NC(=O)[C@H](Cc1ccccc1)N(C)C(=O)[C@H](N)Cc1ccc(O)cc1)C(=O)N1CCC[C@H]1C(=O)N[C@H](CO)C(=O)N[C@@H](CCC(N)=O)C(=O)N[C@@H](Cc1ccccc1)C(=O)N[C@H](C)C(=O)N1Cc2ccccc2C[C@H]1C(=O)N[C@@H](CO)C(=O)O
B2: YW-151 (peptide)
peptide: [dY]FLP[dS]QF[dA][dTi1c]S-OH
modifications: reading uncertain; also: printed as (D-Tyr)-Phe-Leu-Pro-(D-Ser)-Gln-Phe-(D-Ala)-(D-Ti1c)-Ser
B3: YW-119 (peptide)
peptide: [dY]FLP[dS]Q[Bpa][dA][Tic]S-OH
modifications: N-terminus assumed
SMILES: CC(C)C[C@H](NC(=O)[C@H](Cc1ccccc1)NC(=O)[C@H](N)Cc1ccc(O)cc1)C(=O)N1CCC[C@H]1C(=O)N[C@H](CO)C(=O)N[C@@H](CCC(N)=O)C(=O)N[C@@H](Cc1ccc(C(=O)c2ccccc2)cc1)C(=O)N[C@H](C)C(=O)N1Cc2ccccc2C[C@H]1C(=O)N[C@@H](CO)C(=O)O
B4: YW-103 (peptide)
peptide: [dNMeY]FLP[dS]QF[dA][Tic]S-OH
modifications: N-terminus assumed
SMILES: CN[C@H](Cc1ccc(O)cc1)C(=O)N[C@@H](Cc1ccccc1)C(=O)N[C@@H](CC(C)C)C(=O)N1CCC[C@H]1C(=O)N[C@H](CO)C(=O)N[C@@H](CCC(N)=O)C(=O)N[C@@H](Cc1ccccc1)C(=O)N[C@H](C)C(=O)N1Cc2ccccc2C[C@H]1C(=O)N[C@@H](CO)C(=O)O
B5: YW-114 (peptide)
peptide: [dY]FL[Thz][dS]QF[dA][Tic]S-OH
modifications: N-terminus assumed
SMILES: CC(C)C[C@H](NC(=O)[C@H](Cc1ccccc1)NC(=O)[C@H](N)Cc1ccc(O)cc1)C(=O)N1CSC[C@H]1C(=O)N[C@H](CO)C(=O)N[C@@H](CCC(N)=O)C(=O)N[C@@H](Cc1ccccc1)C(=O)N[C@H](C)C(=O)N1Cc2ccccc2C[C@H]1C(=O)N[C@@H](CO)C(=O)O
B6: YW-112 (peptide)
peptide: [dY]FL[Pro(5R-Ph)][dS]QF[dA][Tic]S-OH
modifications: N-terminus assumed
SMILES: CC(C)C[C@H](NC(=O)[C@H](Cc1ccccc1)NC(=O)[C@H](N)Cc1ccc(O)cc1)C(=O)N1[C@@H](c2ccccc2)CC[C@H]1C(=O)N[C@H](CO)C(=O)N[C@@H](CCC(N)=O)C(=O)N[C@@H](Cc1ccccc1)C(=O)N[C@H](C)C(=O)N1Cc2ccccc2C[C@H]1C(=O)N[C@@H](CO)C(=O)O
B7: YW-154 (peptide)
peptide: [dNMeY]FLP[dS]QF[dA][dTi1c]S-OH
modifications: reading uncertain; also: printed as (D-NMe-Tyr)-Phe-Leu-Pro-(D-Ser)-Gln-Phe-(D-Ala)-(D-Ti1c)-Ser
B8: YW-117 (peptide)
peptide: [dY]FLP[dS]Q[1Nal][dA][Tic]S-OH
modifications: N-terminus assumed
SMILES: CC(C)C[C@H](NC(=O)[C@H](Cc1ccccc1)NC(=O)[C@H](N)Cc1ccc(O)cc1)C(=O)N1CCC[C@H]1C(=O)N[C@H](CO)C(=O)N[C@@H](CCC(N)=O)C(=O)N[C@@H](Cc1cccc2ccccc12)C(=O)N[C@H](C)C(=O)N1Cc2ccccc2C[C@H]1C(=O)N[C@@H](CO)C(=O)O
B9: YW-118 (peptide)
peptide: [dY]FLP[dS]Q[2Nal][dA][Tic]S-OH
modifications: N-terminus assumed
SMILES: CC(C)C[C@H](NC(=O)[C@H](Cc1ccccc1)NC(=O)[C@H](N)Cc1ccc(O)cc1)C(=O)N1CCC[C@H]1C(=O)N[C@H](CO)C(=O)N[C@@H](CCC(N)=O)C(=O)N[C@@H](Cc1ccc2ccccc2c1)C(=O)N[C@H](C)C(=O)N1Cc2ccccc2C[C@H]1C(=O)N[C@@H](CO)C(=O)O
B10: YW-110 (peptide)
peptide: [dY]FLP[dS]QF[dA][Tic][NMeS]-OH
modifications: N-terminus assumed
SMILES: CC(C)C[C@H](NC(=O)[C@H](Cc1ccccc1)NC(=O)[C@H](N)Cc1ccc(O)cc1)C(=O)N1CCC[C@H]1C(=O)N[C@H](CO)C(=O)N[C@@H](CCC(N)=O)C(=O)N[C@@H](Cc1ccccc1)C(=O)N[C@H](C)C(=O)N1Cc2ccccc2C[C@H]1C(=O)N(C)[C@@H](CO)C(=O)O
B11: YW-149 (peptide)
peptide: [dY]FLP[dS]QF[dA][dTic]S-OH
modifications: N-terminus assumed
SMILES: CC(C)C[C@H](NC(=O)[C@H](Cc1ccccc1)NC(=O)[C@H](N)Cc1ccc(O)cc1)C(=O)N1CCC[C@H]1C(=O)N[C@H](CO)C(=O)N[C@@H](CCC(N)=O)C(=O)N[C@@H](Cc1ccccc1)C(=O)N[C@H](C)C(=O)N1Cc2ccccc2C[C@@H]1C(=O)N[C@@H](CO)C(=O)O
B12: YW-115 (peptide)
peptide: [dY]FL[Aze][dS]QF[dA][Tic]S-OH
modifications: N-terminus assumed
SMILES: CC(C)C[C@H](NC(=O)[C@H](Cc1ccccc1)NC(=O)[C@H](N)Cc1ccc(O)cc1)C(=O)N1CC[C@H]1C(=O)N[C@H](CO)C(=O)N[C@@H](CCC(N)=O)C(=O)N[C@@H](Cc1ccccc1)C(=O)N[C@H](C)C(=O)N1Cc2ccccc2C[C@H]1C(=O)N[C@@H](CO)C(=O)O
B13: YW-222 (peptide)
peptide: [dTyr(3-F)]F[NMeL]P[dS]Q[2Nal][dA][Tic]S
modifications: not fully specified (residue 4); printed as [D-Tyr(3F)]-Phe-(NMe-Leu)-Pro(tran-4F)-(D-Ser)-Gln-(Nal-2)-(D-Ala)-Tic-Ser
B14: YW-97 (peptide)
peptide: [dF]FLP[dS]QF[dA][Tic]S-OH
modifications: N-terminus assumed
SMILES: CC(C)C[C@H](NC(=O)[C@H](Cc1ccccc1)NC(=O)[C@H](N)Cc1ccccc1)C(=O)N1CCC[C@H]1C(=O)N[C@H](CO)C(=O)N[C@@H](CCC(N)=O)C(=O)N[C@@H](Cc1ccccc1)C(=O)N[C@H](C)C(=O)N1Cc2ccccc2C[C@H]1C(=O)N[C@@H](CO)C(=O)O
B15: YW-220 (peptide)
peptide: [dNMeY]F[NMeL]P[dS]Q[2Nal][dA][Tic][NMeS]
modifications: not fully specified (residue 4); printed as (NMe-D-Tyr)-Phe-(NMe-Leu)-Pro(tran-4F)-(D-Ser)-Gln-(Nal-2)-(D-Ala)-Tic-(NMe-Ser)
B16: YW-221 (peptide)
peptide: [dTyr(3-F)]F[NMeL]P[dS]Q[2Nal][dA][Tic][NMeS]
modifications: not fully specified (residue 4); printed as (D-Tyr(3F))-Phe-(NMe-Leu)-Pro(tran-4F)-(D-Ser)-Gln-(Nal-2)-(D-Ala)-Tic-(NMe-Ser)

biological target: T1, human Chemokine like receptor 1 (human, UniProt Q99788 1-373); experiment: cell-based or functional assay
T1 sequence (looked up): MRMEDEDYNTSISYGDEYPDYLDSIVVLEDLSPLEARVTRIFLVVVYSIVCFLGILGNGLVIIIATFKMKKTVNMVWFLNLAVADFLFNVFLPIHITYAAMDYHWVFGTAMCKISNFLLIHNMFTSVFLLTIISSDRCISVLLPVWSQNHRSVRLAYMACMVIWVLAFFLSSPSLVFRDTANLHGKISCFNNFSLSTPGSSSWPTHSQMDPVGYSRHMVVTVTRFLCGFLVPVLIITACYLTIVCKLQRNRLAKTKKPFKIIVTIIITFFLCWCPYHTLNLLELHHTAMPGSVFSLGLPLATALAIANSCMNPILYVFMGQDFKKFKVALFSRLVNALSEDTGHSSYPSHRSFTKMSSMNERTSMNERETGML

Binder	EC50 (µM), activation of Tango CMKLR1-bla U2OS cells [µM]
B1	0.08
GG[dY]F[NMeL]P[dS]Q[2Nal][dA][Tic]S (not fully specified (residue 6, N-terminus)) [YW-223]	0.00033
[dNMeY]F[NMeL][Thz][dS]QF[dA][Tic]S [YW-123]	0.001
B2	0.027
B3	0.0099
[dY]FL[Pro(4Ph)][dS]QF[dA][Tic]S-OH [YW-113]	0.0086
[dY]FLP[dS]QF[dA][Ti1c]S-OH [YW-150]	0.062
B4	0.0094
B5	0.005
B6	0.17
B7	0.034
B8	0.0039
[dY]F[NMeL][Pro(diF)][dS]Q[2Nal][dA][Tic][NMeS] [YW-224]	0.0013
[dTyr(3-F)]F[NMeL][Pro(diF)″][dS]Q[2Nal][dA][Tic][NMeS]-OH [YW-226]	0.0033
B9	0.0069
B10	0.013
B11	0.021
B12	0.19
B13	0.00034
B14	0.05
[dY]F[NMeL][Thz][dS]Q[2Nal][dA][Tic]S-OH [YW-122]	0.0006
[dY]FL[S‑Pip][dS]QF[dA][Tic]S [YW-96]	0.039
[dNMeY]F[NMeL][Pro(diF)″][dS]Q[2Nal][dA][Tic][NMeS]-OH [YW-225]	0.00064
B15	0.00067
B16	0.00068
